The values that follow come from PMC9860306 (2022).

Some targets named below: E4; E2; C11.
Assay in all cases: SPR
For orientation: SPR reads the build-up and loss of mass on a sensor chip optically.

B1: rituximab, galactosylated afucosylated (G2) glycoform (antibody)
chain 1: QVQLQQPGAELVKPGASVKMSCKASGYTFTSYNMHWVKQTPGRGLEWIGAIYPGNGDTSYNQKFKGKATLTADKSSSTAYMQLSSLTSEDSAVYYCARSTYYGGDWYFNVWGAGTTVTVSA
chain 2: QIVLSQSPAILSASPGEKVTMTCRASSSVSYIHWFQQKPGSSPKPWIYATSNLASGVPVRFSGSGSGTSYSLTISRVEAEDAATYYCQQWTSNPPTFGGGTKLEIK
modifications: N-linked glycan on Asn297: G2 (galactosylated, no core fucose)
A word on the Kd: it is the concentration at which binding is half-saturated. For the molecule B1, the Kd with E4 came out at 2.48 µM; in the assay with E2, 4.74 µM; with C11 it was 22.8 µM.
